In one test the target is HLA-A*02:02. Description: IEDB peptide-MHC binding, cellular MHC/competitive/fluorescence; ≥ and ≤ were set here for values at or beyond the usual limits of such assays.
The target of a further test is HLA-A*02:06. The test is described as above.
The next test concerns the target HLA-A*02:03. The description is as above.
For test [1], the target named is HLA-A*02:01. The description is as above.
Test [2] has as its target HLA-A*68:02. Described as above. The conditions noted are these: source organism: Vaccinia virus WR.
Test [3] concerns the target HLA-A*02:01. As to the kind of experiment: IEDB peptide-MHC binding, purified MHC/competitive/radioactivity; ≥ and ≤ were set here for values at or beyond the usual limits of such assays. The conditions noted are these: source organism: Vaccinia virus WR.
Test [4] concerns the target HLA-A*68:02. The test is described as above.
[5] abbreviates: source organism: Vaccinia virus WR.
[6] abbreviates: source organism: Mammarenavirus guanaritoense.

Some results are limits rather than exact numbers.

The values below come from the Immune Epitope Database (IEDB).

Usually IC50 stands for the midpoint of a concentration-inhibition curve.

Turning to CVRNLEELTT, the IC50 with HLA-A*02:02 (setting [5]) is 12.6 µM; in the test with HLA-A*02:06 (setting [5]), 43 µM; in the test with HLA-A*02:03 (setting [5]) it was 15.2 µM; with HLA-A*02:01 [1] (setting [5]), 45.2 µM; in the test with HLA-A*68:02 [2], 33.1 µM.
For DAKRNSKSL, in that order: 13.7 µM, at least 70 µM, 49.7 µM, at least 70 µM and at least 70 µM.
For DIDLLFNEKL, in that order: 11.2 µM, 25.7 µM, 26.7 µM, 5.79 µM and 15.8 µM.
In the case of DILQMREIIT, the IC50 with HLA-A*02:02 (setting [5]) came out at 45.5 µM; with HLA-A*02:06 (setting [5]), 17.7 µM; with HLA-A*02:03 (setting [5]), 56.2 µM; with HLA-A*02:01 [1] (setting [5]), 31.1 µM; in the test with HLA-A*68:02 [2], 20.3 µM.
In the same order, the values of DIMLPESDL are 18.5 µM, 31.6 µM, 35.8 µM, 12.9 µM and 13.4 µM.
In the same order, the values of DISVNASKTI are 46.8 µM, at least 70 µM, 11.9 µM, 14.7 µM and 14.5 µM.
For DIVSDSKKIM, in that order: 25.1 µM, at least 70 µM, 57.2 µM, 64.6 µM and at least 70 µM.
Regarding DLAIKQYGDI, the IC50 with HLA-A*02:02 (setting [5]) is 17.9 µM; in the test with HLA-A*02:06 (setting [5]), 46.8 µM; with HLA-A*02:03 (setting [5]) it was 33.3 µM; with HLA-A*02:01 [1] (setting [5]) it was at least 70 µM; in the test with HLA-A*68:02 [2] it was 7.72 µM.
For DLDKVYEIL, in that order: 19.6 µM, 53.6 µM, 26.3 µM, 29.7 µM and at least 70 µM.
In the same order, the values of DMICCDSRIV are 11.3 µM, 18.9 µM, 6.08 µM, 34.7 µM and 13.3 µM.
As for DMLLNVQTL, the IC50 with HLA-A*02:02 (setting [5]) turned out to be 7.4 µM; with HLA-A*02:06 (setting [5]), 13.4 µM; with HLA-A*02:03 (setting [5]), 5.07 µM; in the test with HLA-A*68:02 [2] it was 5.05 µM; with HLA-A*02:01 [3] it was 3.15 µM.
With DVCKKNLDL, the half-maximal inhibitory concentration (IC50) is 25.4 µM with HLA-A*02:02 (setting [5]); 16.3 µM in the test with HLA-A*02:06 (setting [5]); 8.02 µM with HLA-A*02:03 (setting [5]); 19.5 µM with HLA-A*02:01 [1] (setting [5]); 40.6 µM in the test with HLA-A*68:02 [2].
In the same order, the values of DVEKEKFVAT are 37.5 µM, 69.8 µM, 54.8 µM, 30.2 µM and at least 70 µM.
With IAVFDSKLI, the concentration for half-maximal inhibition (IC50) with HLA-A*02:02 (setting [5]) was determined as 7.85 µM; in the test with HLA-A*02:06 (setting [5]), 11.9 µM; with HLA-A*02:03 (setting [5]), 11.9 µM; with HLA-A*68:02 [2] it was 6.79 µM; with HLA-A*02:01 [3] it was 3.85 µM.
Regarding IMECSRMLDT, the concentration for half-maximal inhibition (IC50) is 5.24 µM with HLA-A*02:02 (setting [5]); at least 70 µM with HLA-A*02:06 (setting [5]); 7.2 µM with HLA-A*02:03 (setting [5]); at least 70 µM in the test with HLA-A*68:02 [2]; 3.1 µM with HLA-A*02:01 [3].
On to LLDEPLSPDT, for which the IC50 was 8.51 µM with HLA-A*02:02 (setting [5]); 7.84 µM with HLA-A*02:06 (setting [5]); 10.1 µM in the test with HLA-A*02:03 (setting [5]); at least 70 µM with HLA-A*68:02 [2]; 3.6 µM in the test with HLA-A*02:01 [3].
On to PLTLLIKTL, for which the IC50 with HLA-A*02:02 (setting [5]) is 5.27 µM; with HLA-A*02:06 (setting [5]), 8.1 µM; with HLA-A*02:03 (setting [5]) it was 6.15 µM; with HLA-A*68:02 [2], 6.22 µM; with HLA-A*02:01 [3], 4.78 µM.
For QQNNSFIIST, in that order: 7 µM, 5.71 µM, 5.04 µM, 8.51 µM and 1.23 µM.
For QTLISLNSM, the IC50 in the test with HLA-A*02:02 (setting [5]) turned out to be 19.4 µM; with HLA-A*02:06 (setting [5]) it was 7.5 µM; with HLA-A*02:03 (setting [5]), 39.3 µM; with HLA-A*68:02 [2], 19.4 µM; with HLA-A*02:01 [3], 4.82 µM.
For SILNNPVDT, the IC50 with HLA-A*02:02 (setting [5]) worked out at 47.1 µM; with HLA-A*02:06 (setting [5]), 14.2 µM; with HLA-A*02:03 (setting [5]), 30.6 µM; with HLA-A*68:02 [2], 46.8 µM; in the test with HLA-A*02:01 [3] it was 4.63 µM.
Turning to VVIVENDNVI, the concentration for half-maximal inhibition (IC50) with HLA-A*02:02 (setting [5]) came to 14.7 µM; in the test with HLA-A*02:06 (setting [5]), 10.8 µM; with HLA-A*02:03 (setting [5]), 10.2 µM; with HLA-A*68:02 [2] it was 22.5 µM; with HLA-A*02:01 [3], 2.83 µM.
YCLDFLFDV: the concentration for half-maximal inhibition (IC50) in the test with HLA-A*02:02 (setting [6]) is 17.3 µM; in the test with HLA-A*02:06 (setting [6]), at least 70 µM; with HLA-A*02:03 (setting [6]) it was at least 70 µM; in the test with HLA-A*02:01 [1] (setting [6]) it was 40.7 µM; in the test with HLA-A*68:02 [4] (setting [6]) it was 0.024 µM.
As for YTEAAAATCA, the IC50 with HLA-A*02:02 (setting [5]) was 36.5 µM; in the test with HLA-A*02:06 (setting [5]) it was 7.16 µM; in the test with HLA-A*02:03 (setting [5]) it was 16.1 µM; in the test with HLA-A*02:01 [1] (setting [5]) it was 36.5 µM; with HLA-A*68:02 [4] (setting [5]), 0.159 µM.
